The results in this text go back to patent US20260027190A1, “OVARIAN TUMOR DEUBIQUITINASE OXIDATION AND USES THEREOF” (The University of Vermont and State Agricultural College, priority 2022, published 2026).

Some results are limits rather than exact numbers.

Assay type in all cases: cell-based
Assay [1] deals with mouse tracheal epithelial (MTE) cells. As to the kind of experiment: Total GSH measurement (DTNB assay) in MTE cells. To be noted: direct administration of recombinant protein to MTE cells. The method, then:
It has been previously shown that the pleotropic cytokine IL1B augments glycolysis in lung epithelial cells, and that interleukin 1B (IL1B) is linked to oxidative stress. The pentose phosphate pathway, an offshoot of glycolysis, regulates the redox environment by providing nicotinamide adenine dinucleotide phosphate (NADPH) reducing equivalents necessary for glutathione (GSH) homeostasis. The effects of GSH in response to IL1B were examined. Briefly, GSH was measured using a 5,5′-dithio-bis (2-nitrobenzoic acid) (DTNB) assay in both control and IL1B-stimulated mouse tracheal epithelial cells. […] Statistics on the left panel represent the total GSH levels, without differentiating between labeled and unlabeled portions of GSH (P-value*<0.05, ****<0.0001).
A regulator of GSH homeostasis is the transporter system xC-, which exports glutamate and concomitantly imports cystine in a 1:1 ratio. Once inside the cells, cystine is reduced to two cysteines, the latter being the rate limiting amino acid required for GSH synthesis. These relationships were examined further. […] To address whether IL1B-induced increases in GSH are system xC- dependent, two system xC- inhibitors, erastin (Er) and sulfasalazine (SAS) were used. Cells were pretreated for one hour, followed by IL1B treatment for 24 hours. Then, GSH levels were measured in cells exposed to increasing doses of Er or SAS (FIG. 2G). Extracellular glutamate levels in cell culture supernatant of cells pretreated with 0.5 micromolar Er (left) or 100 micromolar SAS (right) for 1 hour before IL1B stimulation were also measured (FIG. 2H). […] System xC- inhibition is known to induce ferroptosis, an iron-dependent mode of cell death characterized by increased lipid peroxidation. However, no changes in cell viability using erastin (5 micromolar) or sulfasalazine (500 micromolar) were detected (FIG. 2I; P-value*<0.05, ***<0.001, ****<0.0001).
Primary mouse tracheal epithelial (MTE) cells were isolated from C57BL/6NJ wild-type or C57BL6/NJ mice lacking Glrx1 gene and cultured. Cells were grown on collagen coated plastic plates or transwell inserts with media change every 2 days until confluency. For interleukin 1B (IL1B) treatment: cells were incubated in plain Dulbecco's Modified Eagle Medium (DMEM): F12 media containing 6 mM glucose and 2 mM glutamine overnight followed by stimulation with 10 ng/ml IL1B or 0.1% bovine serum albumin (BSA) in phosphate buffered saline (PBS) (vehicle control) for 24 hours. Treatment with crastin, sulfasalazine or BSO occurred 1 hour before IL1B stimulation. Media and cells were collected for further analysis. For growing H522 and OTUB1-CRISPR-H522 cells: Roswell Park Memorial Institute (RPMI) media supplemented with 10% fetal bovine serum (FBS) and 1% pen/strep was used to grow the cells. Plasmid over-expression and OTUB1 knock-down experiments were done when cells were 60-70% confluent.
Cell lysates were prepared in 100 mM potassium phosphate buffer containing 0.6% sulfosalicylic acid, 1 mM ethylenediaminetetraacetic acid (EDTA) and 0.01% triton-x-100. To measure total glutathione (GSH), equal amounts of proteins were incubated with 3 micromolar 5,5′-dithio-bis (2-nitrobenzoic acid) (DTNB) reagent and 2.25 microgram/ml glutathione reductase followed by the addition of 240 micromolar Nicotinamide adenine dinucleotide phosphate (NADPH). Kinetic absorbance was measured every minute at 412 nm for 20 minutes. […]

The test system of another assay is H522 LUAD cells. Kind of assay: GSH levels in H522 LUAD cells. To be noted: administration of GLRX to H522 LUAD cells. On the procedure: Cell lysates were prepared in 100 mM potassium phosphate buffer containing 0.6% sulfosalicylic acid, 1 mM ethylenediaminetetraacetic acid (EDTA) and 0.01% triton-x-100. To measure total glutathione (GSH), equal amounts of proteins were incubated with 3 micromolar 5,5′-dithio-bis (2-nitrobenzoic acid) (DTNB) reagent and 2.25 microgram/ml glutathione reductase followed by the addition of 240 micromolar Nicotinamide adenine dinucleotide phosphate (NADPH). Kinetic absorbance was measured every minute at 412 nm for 20 minutes. For protein S-glutathionylation (PSSG) measurement, 400 micrograms of protein was acetone precipitated and washed thoroughly to remove any free GSH. Pellets were reconstituted in 100 mM potassium phosphate buffer with 1 mM EDTA. Samples were then incubated with 1 mM sodium borohydride (NaBH4) or water (negative control) for 1 hour at room temperature. 10% metaphosphoric acid was added to all the samples, including controls, and left on ice for 10 minutes. Samples were centrifuged at 1000×g for 15 minutes and 20 microliters were loaded in a 96 well plate to measure PSSG using, 5′-dithio-bis-(2-nitrobenzoic acid) (DTNB) recycling enzyme method as stated above.

Another assay concerns H522 cells. As to the kind of experiment: Synergy of GLRX and cisplatin in killing of H522 cells (Synergy Finder). As to conditions: Chou-Talalay method (Synergy Finder).
The next assay relates to SLC7A11. Kind of assay: SLC7A11 levels in H522 LUAD cells. As to conditions: administration of GLRX to H522 LUAD cells. The method, then: Bio-Rad DC protein estimation kit was used to determine protein concentration in cell lysates. Equal amounts of proteins were resolved using sodium dodecyl sulfate (SDS)-polyacrylamide gel electrophoresis and transferred to polyvinylidene difluoride (PVDF) membranes, blocked in 5% BSA and incubated with primary antibodies overnight. Membranes were subsequently incubated with peroxidase-conjugated secondary antibodies for one hour and then visualized using chemiluminescence.

B1: GLRX: recombinant wild-type glutaredoxin protein, deglutathionylating enzyme, administered directly to cells (protein, UniProt P35754 2-106, looked up)
Glutaredoxin-1: AQEFVNCKIQPGKVVVFIKPTCPYCRRAQEILSQLPIKQGLLEFVDITATNHTNEIQDYLQQLTGARTVPRVFIGKDCIGGCSDLVSLQQSGELLTRLKQIGALQ
In the case of B1, the GSH levels entry (in assay [1]; in the assay with H522 LUAD cells) was “decreased” each time. Further, in the assay with H522 cells, the “synergy with cisplatin (ZIP Score)” value is above 10. Also, in the assay on SLC7A11, the SLC7A11 levels result is recorded as “decreased”.
